Molecular target: T1, NP from influenza virus A/WSN/33 with a C-terminal His tag (Influenza A virus A/WSN/33), P15682
T1 chain: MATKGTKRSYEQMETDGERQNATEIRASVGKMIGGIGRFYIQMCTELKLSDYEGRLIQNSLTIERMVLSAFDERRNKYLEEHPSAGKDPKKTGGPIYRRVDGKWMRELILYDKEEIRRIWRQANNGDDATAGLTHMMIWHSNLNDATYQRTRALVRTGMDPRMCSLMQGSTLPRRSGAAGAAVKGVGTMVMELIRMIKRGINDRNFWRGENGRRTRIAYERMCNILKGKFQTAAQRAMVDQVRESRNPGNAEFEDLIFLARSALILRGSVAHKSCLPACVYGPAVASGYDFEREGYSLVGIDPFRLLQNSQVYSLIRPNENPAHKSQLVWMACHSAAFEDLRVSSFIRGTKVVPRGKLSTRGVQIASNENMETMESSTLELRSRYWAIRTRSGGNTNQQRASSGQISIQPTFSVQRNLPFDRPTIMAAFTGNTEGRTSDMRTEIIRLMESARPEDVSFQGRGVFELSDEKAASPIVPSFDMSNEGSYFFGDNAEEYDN
Assay: crystal structure
Settings: remark: other sources report otherwise

B1: NP from influenza virus A/WSN/33 with a C-terminal His tag, P15682 1-498 (natural protein)
chain: T1 chain
stoichiometry N: 3

Source: paper PMC5156300 (mBio, 2016)
